{"source": "patent US20200291123A1", "about": "(PB IMMUNE THERAPEUTICS, published 2020)", "binders": {"B1": {"name": "anti-CD40 antibody RM8G-1 (antibody, V domains shown)", "VH": "LVQLKESGPGLVAPSQSLSITCTVSGFSLTDYGVGWIRQPPGKDLEWLGVMWGGGRTYYNAPLKSRLSISKDNSKSQVFLKMNSLQTDDTAMYYCVKTGQDYAVDYWGQGTSVTVSS", "VL": "DIVLTQSPASLAVSLGQRATISCRASKSVSTSAYSYMHWYQQKPGQPPKLLIYLASNLESGVPARFSGSGSGTDFTLNIHPVEEEDAATYYCQHSWDLPYTFGGGTKLEIK", "notes": "Mouse monoclonal antibody from hybridoma RM8G1 (KCLRF-BP-00336); also called RM RM8G-1; anti-CD40 RM8G-1"}}, "target": "T1, His-tagged CD40 antigen (human, UniProt P25942 21-193, limits assumed)", "T1 construct": "Captured on an anti-His antibody on a CM5 chip; not shown: His tag", "T1 sequence (P25942 21-193 limits assumed)": "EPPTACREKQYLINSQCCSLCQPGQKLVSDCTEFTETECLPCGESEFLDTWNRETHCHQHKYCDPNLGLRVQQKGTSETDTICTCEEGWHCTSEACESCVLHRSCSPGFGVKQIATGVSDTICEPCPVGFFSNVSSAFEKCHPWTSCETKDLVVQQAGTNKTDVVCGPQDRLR", "assay": "SPR, Biacore T200, CM5 chip, His-tagged CD40 captured on anti-His antibody", "description": "That is, the anti-His antibody was immobilized on the surface of the CM5 sensor chip by an amine coupling method. His-tagged CD40 antigen was captured by reacting the His-tagged CD40 antigen with the antibody and then the captured antigen was reacted with sensor chip coated with an anti-his antibody. The results were read using biocore T200 (GE Healthcare)."}
{"binder": "B1", "values": [{"measurement": "Kd", "result": 494, "unit": "pM"}, {"measurement": "koff", "result": 0.000234, "unit": "s⁻¹"}, {"measurement": "kon", "result": 474000, "unit": "M⁻¹ s⁻¹"}]}
